These results are taken from PMC9294600.

The assay concerns the target HA-tagged p62 (SQSTM1) (UniProt Q13501). Put plainly: coimmunoprecipitation and immunoblot, quantified. The settings on record: 293T cells; 0.2 μM Baf A1 for 6 h; parent: est. 1.0; read off a plot. For orientation: Immunoblotting shows a protein as a band on a membrane.
For “Flag-tagged dengue virus (DENV) capsid protein K17R”, the ratio to parent was determined as 1.1.

Consider “Flag-tagged dengue virus (DENV) capsid protein K76R”, for which the ratio to parent stood at 0.22. In the case of “Flag-tagged dengue virus (DENV) capsid protein K6R” it was 0.81.
